Experimental findings from patent CN114805568A (BEIJING KENUO XINCHENG TECH CO LTD, dated 2022) are described below.

Several values for one entry are separate records, joined by “and”; a condition that tells them apart may be missing. Equal values may be shown once.

For experiment [1], the target named is T1, LILRB2重组蛋白(购于ACRO，Cat# LI2-H5220) (UniProt Q8N423 22-461).
T1 construct: Bought reagent; Used as analyte at '60nm' in BLI
Put plainly: BLI (Octet QKe), antibody captured on AHC probe, LILRB2 as analyte, 1:1 fit.

The target of experiment [2] is T2, LILRB2-mFc(NCBI号:AAH36827，22-461氨基酸) (UniProt Q8N423 22-461).
T2 construct: range 22-461; also called 重组LILRB2; not shown: mouse Fc (mFc)
Kind of experiment: blocking ELISA: LILRB2-mFc binding to coated HLA-G. For orientation: An ELISA detects its analyte on a solid surface through an enzyme-linked reagent.

B1: JTX-8064 (antibody, V domains shown)
VH: QITLKESGPTLVKPTQTLTLTCTFSGFSLNTYAMGVSWIRQPPGKALEWLASIWWNGNKYNNPSLKSRLTVTKDTSKNQVVLTMTNMDPVDTATYYCAHSRIIRFTDYVMDAWGQGTLVTVSS
VL: DIQMTQSPSSLSTSVGDRVTITCRASEDIYNDLAWYQQKPGKAPKLLIYNANSLHTGVASRFSGSGSGTDFTFTISSLQPEDVATYFCQQYYDYPLTFGQGTKLEIK
notes: expressed in HEK293, Protein A purified; also called 对照抗体
A word on the Kd: it is the free concentration of one partner at which half of the binding sites on the other are occupied at equilibrium, for simple one-to-one binding. A low value points to tighter binding. By koff is commonly meant the rate constant with which the complex falls apart. A word on the kon: it is the rate constant with which the complex forms. A high value points to faster complex formation. For orientation: IC50 means the concentration that inhibits the measured activity by half. Read a low IC50 as greater potency in that assay. In experiment [1], B1 came in with a Kd of 4.93 nM, a koff of 0.00211 s⁻¹ and a kon of 428000 M⁻¹ s⁻¹. In experiment [2], the IC50 is 0.86 nM and 1 nM.
